In the supplement of paper PMC9732359:
± gives the uncertainty stated by the source.

Experiment: protein stability index of a GFP-peptide fusion (yeast GPS) (PSI 1-4); higher = more stable; sorted into four equal gates, so the index is relative within each strain
Settings: doa10∆
Summary of the method: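 The protein stability index combines read frequencies across sorting gates, each weighted by its gate number and then summed. To obtain those frequencies, a pooled yeast library of GFP fusions to tiled 17-residue yeast protein peptides, on a plasmid also expressing Cherry, was grown to mid-log phase in leucine-free medium. The cells were sorted into four equal gates by GFP/Cherry ratio before plasmid amplification by PCR and Illumina sequencing.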

Sequence	protein stability index
FMAFINACAKYGRDDME [ISW2]	2.77 ± 0.2
FMGTAFNQEGDYNFKYG [PRP8]	3.02 ± 0.11
FNIISMTLKEMYQMITM [SMC4]	1.92 ± 0.074
FNKYADPTLTTTTSFTT [RPN4]	2.35 ± 0.035
FNNGDDDDYGDEEDPNE [RPC31]	3.25 ± 0.15
FNRALDQSISKLQSWDK [NNF1]	1.63 ± 0.066
FNTEAEQTVSAVTEATS [RGR1]	2.67 ± 0.28
FNYQGDELVLNFENDNE [REC8]	2.9 ± 0.18
FPESIWKDFTVEIAFLF [YCG1]	2.25 ± 0.06
FPFVLKVDNDLRIELQS [SRB8]	2.98 ± 0.12
FPPPSVAARAEILRIHS [RPT6]	1.72 ± 0.074
FPSIPLPINGPITNKER [RPC31]	2.23 ± 0.058
FPVDPTTPVKLGPGIYC [RRP40]	2.41 ± 0.058
FPVSLSQPSKKSFANHT [SIR4]	2.82 ± 0.051
FQDYLTQQAVNLEKNYL [IRR1]	2.15 ± 0.11
FQEGVVVAKKDFNQAKH [RPS10A]	2.1 ± 0.27
FQKFLTGHPKGAAGAWM [FAS2]	1.31 ± 0.25
FQLLEPLSTYNKNGNAV [PGD1]	2.81 ± 0.058
FQNSKSASLFKQRKNPR [RPL24A]	2.11 ± 0.097
FQTIFSKQDLIHSLIPV [SIN4]	1.93 ± 0.046
FREWQYFKLSITSFDQD [POP8]	1.94 ± 0.052
FRHHVQIQQQQQKQQQQ [SNF5]	2.71 ± 0.17
FRYITTWENEFLDSQRV [PRP8]	2.77 ± 0.065
FSISYKPPTQKTDTKVS [SRP21]	2.24 ± 0.037

Sequence	protein stability index
FSKKGNEPLSEIEIEGV [YAR002W/NUP60]	2.72 ± 0.11
FSQFWYWFPLAHFLSLS [RPN2]	1.66 ± 0.044
FTAGARAKIVKAGGECI [RPL18A]	1.29 ± 0.081
FTITVARKYLQTRWGLP [FAS2]	1.44 ± 0.092
FTKYKPARSSSLRSNVV [YAR002W/NUP60]	1.79 ± 0.046
FTNGVLAVTNLLIISCI [YML031W/NDC1]	1.89 ± 0.18
FVCRGMAATQTIEQSPR [ECM29]	1.7 ± 0.063
FVDENTFQRVCQYMVAC [RPN1]	3.09 ± 0.074
FVEEQNVYVLPKNLLKK [PRP8]	2.54 ± 0.056
FVFTNEPLTEIKNVIVS [RPP0]	1.84 ± 0.057
FVKPGTALDAEGAARGT [DIS3]	3.1 ± 0.13
FVNETPRVIEPVYTAQW [PRP8]	1.57 ± 0.16
FVNGVWHGVHRNPARLM [RPB2]	1.68 ± 0.11
FVSNMGFDIQKSCEPVS [SIR4]	2.06 ± 0.066
FVSSGFDTSIKLDIISD [RPN14]	2.39 ± 0.045
FVSYFGKQIKSTIYNWG [YML103C/NUP188]	1.67 ± 0.11
FYKNKYSSKPYKVDNMT [RPN2]	2.44 ± 0.067
FYVQDVYKDNLSFIQVR [RPO31]	1.98 ± 0.049
GAAPYAAKLKQTENDLK [RPT1]	2.06 ± 0.14
GAGSIFTSHTRLRQGAA [RPL2A]	3.05 ± 0.1
GALPPDLSLIVKARHGG [CYT1]	1.83 ± 0.23
GAMTPEEIFFKSVRILK [RPC40]	2.9 ± 0.12
GAVIQLLKSTGLHPFEV [RPB4]	3.32 ± 0.13
GCIKIYSSRVDSVTTET [BRN1]	2.43 ± 0.14

Sequence	protein stability index
GDIESLFEQLQTVSNKE [SRP54]	3.08 ± 0.098
GDLASLVLLNGRLRNKS [RPP1]	2.83 ± 0.054
GDQFLRYVNLLGVTYSS [PRE4]	2.27 ± 0.1
GDRGALARASGNYVIII [RPL2A]	2.82 ± 0.11
GDRQRLGEEHPLQVARC [RPT1]	1.43 ± 0.097
GDVSSGLFEKSTVSANH [BRN1]	2.84 ± 0.12
GDYSQATVLSRKILKKT [RPN5]	2.68 ± 0.054
GEIGDFFSSDWRFLQIL [POP1]	2.73 ± 0.089
GEIQLLFQRQKLHEFYL [IRR1]	2.71 ± 0.12
GEITKTENEKFISYHDK [NUT1]	3.31 ± 0.097
GEKNFTSAHLKLKEMQK [SMC4]	3.01 ± 0.14
GELFLNESWKSSFEKFN [SRP72]	3.23 ± 0.23
GEQIIVHPVNEREPVPL [RRP45]	2.85 ± 0.12
GFIDASCIAVMAGLMHF [RRP45]	1.48 ± 0.041
GFPSAPQPLFMEDPPST [YMR153W/NUP53]	2.66 ± 0.06
GGEKTVAALALLFAINS [SMC1]	1.2 ± 0.078
GGESDSALILMYKGFGL [UBP6]	3.37 ± 0.07
GGIVTVRSEMGEPIHKI [FAS1]	3.29 ± 0.18
GGLKSCDLDFPLRENTN [YDL116W/NUP84]	2.59 ± 0.058
GGLQKGKLVVSQEMVPR [SIR3]	3.03 ± 0.07
GGLTKQIKEIKEVIELP [RPT6]	3.74 ± 0.27
GGNFKDLSTLVHSSSPS [GAL11]	1.48 ± 0.056
GGNSNKSPPQFFYNISS [SIN4]	2.76 ± 0.043
GGRMFAPTKTWRKWNVK [RPL4A]	2.87 ± 0.12

Sequence	protein stability index
GGTSLFGNTSTSSAPAQ [YGL172W/NUP49]	2.17 ± 0.17
GGVDVGPSVESYELRNT [SNF5]	2.9 ± 0.1
GHNDWVSQVRVVPNEKA [ASC1]	2.3 ± 0.1
GIEYNRVTNTTSTDFPG [RPC40]	3.33 ± 0.22
GIHDGHIKKLLHQYYGD [FAS1]	1.44 ± 0.045
GIIEPSLKALASKYNCD [RPL40A]	3.44 ± 0.17
GIKAKHDKNIQKLLKQL [ISW2]	2.41 ± 0.048
GIKVLPETCLFVSYFGK [YML103C/NUP188]	2.7 ± 0.055
GIKYHATPPLKRFKDME [SMC1]	3.1 ± 0.1
GILLETISVPQIRDVME [RRP6]	2.74 ± 0.072
GILYMGQGEQVDDVLET [RPN1]	1.23 ± 0.16
GINNLSEIWDVSRGQSA [PRP8]	3 ± 0.13
GINSKSGKPFIAGFDLI [PUP3]	3.11 ± 0.089
GISEVQARKSKSVSFYA [RPT5]	3.4 ± 0.064
GISMFDYISGISVGLYD [SKI6]	2.02 ± 0.092
GISSTLVSANNDNNSPH [YLR018C/POM34]	2.62 ± 0.051
GISVPFHSTYLMNGVKP [FAS1]	1.46 ± 0.042
GKEFGDVSVKMGNTKVH [RRP45]	1.38 ± 0.073
GKISKPRFLNKQERSKQ [PRP28]	1.9 ± 0.088
GKKASLNVGNVLPLGSV [RPL2A]	2.4 ± 0.051
GKLEVPGYVDIVKTSSG [RPS19A]	3.38 ± 0.15
GKLGQIDYALTAVKQGV [PRE8]	1.36 ± 0.21
GKLISNLSSTPMETLLS [YML031W/NDC1]	2.61 ± 0.11
GKMVRAQDVALAKKWFL [PRP8]	2.34 ± 0.12
